Results published in IntAct's records for PubMed 16832058.

B1: Proliferation-associated protein 2G4 (Homo sapiens), Q9UQ80 (parent)
chain: MSGEDEQQEQTIAEDLVVTKYKMGGDIANRVLRSLVEASSSGVSVLSLCEKGDAMIMEETGKIFKKEKEMKKGIAFPTSISVNNCVCHFSPLKSDQDYILKEGDLVKIDLGVHVDGFIANVAHTFVVDVAQGTQVTGRKADVIKAAHLCAEAALRLVKPGNQNTQVTEAWNKVAHSFNCTPIEGMLSHQLKQHVIDGEKTIIQNPTDQQKKDHEKAEFEVHEVYAVDVLVSSGEGKAKDAGQRTTIYKRDPSKQYGLKMKTSRAFFSEVERRFDAMPFTLRAFEDEKKARMGVVECAKHELLQPFNVLYEKEGEFVAQFKFTVLLMPNGPMRITSGPFEPDLYKSEMEVQDAELKALLQSSASRKTQKKKKKKASKTAENATSGETLEENEAGD

Variants of: B1
Details: with erbb3_rat Erbb3, Q62799
erbb3_rat Erbb3, Q62799, sequence (Q62799 whole entry): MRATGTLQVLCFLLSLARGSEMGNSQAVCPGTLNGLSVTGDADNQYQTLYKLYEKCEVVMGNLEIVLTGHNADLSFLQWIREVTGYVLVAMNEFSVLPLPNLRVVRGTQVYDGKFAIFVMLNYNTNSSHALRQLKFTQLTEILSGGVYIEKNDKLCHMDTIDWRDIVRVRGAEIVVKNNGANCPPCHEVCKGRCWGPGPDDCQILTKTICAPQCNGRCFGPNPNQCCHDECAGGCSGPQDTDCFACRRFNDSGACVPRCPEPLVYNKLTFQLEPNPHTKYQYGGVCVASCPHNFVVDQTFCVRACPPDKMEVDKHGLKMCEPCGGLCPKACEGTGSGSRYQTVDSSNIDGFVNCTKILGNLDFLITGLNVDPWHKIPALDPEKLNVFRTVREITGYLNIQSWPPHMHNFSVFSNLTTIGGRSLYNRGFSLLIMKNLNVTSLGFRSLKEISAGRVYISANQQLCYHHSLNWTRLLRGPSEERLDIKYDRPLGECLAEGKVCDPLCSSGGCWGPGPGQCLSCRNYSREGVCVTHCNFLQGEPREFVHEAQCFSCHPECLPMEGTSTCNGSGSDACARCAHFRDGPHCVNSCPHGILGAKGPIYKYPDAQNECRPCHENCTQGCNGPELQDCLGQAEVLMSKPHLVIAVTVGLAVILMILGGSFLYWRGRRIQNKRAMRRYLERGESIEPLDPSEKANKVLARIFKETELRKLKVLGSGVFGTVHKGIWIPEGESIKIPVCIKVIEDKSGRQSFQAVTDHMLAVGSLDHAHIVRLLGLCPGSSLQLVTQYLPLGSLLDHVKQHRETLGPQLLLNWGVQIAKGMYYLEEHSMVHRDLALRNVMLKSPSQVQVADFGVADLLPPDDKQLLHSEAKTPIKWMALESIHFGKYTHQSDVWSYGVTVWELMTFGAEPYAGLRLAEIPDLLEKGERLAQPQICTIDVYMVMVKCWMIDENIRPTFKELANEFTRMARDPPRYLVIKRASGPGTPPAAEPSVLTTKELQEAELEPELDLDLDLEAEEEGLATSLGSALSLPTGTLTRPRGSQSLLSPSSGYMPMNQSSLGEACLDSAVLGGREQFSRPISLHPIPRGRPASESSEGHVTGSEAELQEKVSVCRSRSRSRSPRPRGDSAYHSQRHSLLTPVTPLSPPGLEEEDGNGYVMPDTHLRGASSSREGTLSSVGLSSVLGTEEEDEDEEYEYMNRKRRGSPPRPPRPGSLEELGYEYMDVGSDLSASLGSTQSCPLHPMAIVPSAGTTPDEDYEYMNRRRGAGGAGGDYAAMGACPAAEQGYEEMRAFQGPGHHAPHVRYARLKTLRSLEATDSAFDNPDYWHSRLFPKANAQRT

Row | Variant | effect of a mutation on the interaction
1 | S360A | disrupting interaction strength
